The test system of data set [1] is CLOCK bHLH-PAS-AB;BMAL1 bHLH-PAS-AB (mouse;mouse). The data set is described as follows: fluorescence anisotropy competition. Conditions: not given in the material (Supplementary Methods not held). On the technique in general: In fluorescence polarisation assays a small probe gives low polarisation when free and higher when bound to something large.
Data set [2] shares this test system. The data set is described as follows: fluorescence anisotropy. Conditions: not given in the material (Supplementary Methods not held).

Among the data in PMC3694778 are Kd values, retold here.

A word on the Kd: it is the equilibrium constant for the complex coming apart. Lower therefore signals tighter binding.

Consider mPer1 E1-box DNA 18-mer, unlabeled, for which the Kd in data set [1] came to 9 nM. In data set [1], mPer2 E2-box DNA 18-mer, unlabeled gave a Kd of 13 nM. Turning to mPer2 E2-box DNA, fluorescein labeled, the Kd in data set [2] was found to be 59 nM.
